Patent US20260049138A1 (Chugai, published 2026)

B1: CE115HA000 Y97P one-arm antibody (antibody, human IgG1, kappa, L234A L235A, N297A, name in Kabat numbering)
heavy: QVQLVESGGGVVQPGRSLRLSCAASGFTFSNAWMHWVRQAPGKGLEWVAQIKAKSNNYATYYAESVKGRFTISRDDSKNSLYLQMNSLKTEDTAVYYCRYVHPGAYYGVDAWGQGTTVTVSSASTKGPSVFPLAPSSKSTSGGTAALGCLVKDYFPEPVTVSWNSGALTSGVHTFPAVLQSSGLYSLSSVVTVPSSSLGTQTYICNVNHKPSNTKVDKKVEPKSCDKTHTCPPCPAPEAAGGPSVFLFPPKPKDTLMISRTPEVTCVVVDVSHEDPEVKFNWYVDGVEVHNAKTKPREEQYASTYRVVSVLTVLHQDWLNGKEYKCKVSNKALPAPIEKTISKAKGQPREPQVYTLPPSRCELTKNQVSLSCAVKGFYPSDIAVEWESNGQPENNYKTTPPVLDSDGSFFLVSKLTVDKSRWQQGNVFSCSVMHEALHNHYTQKSLSLSPDYKDDDDK
chain: EPKSSDKTHTCPPCPAPELLGGPSVFLFPPKPKDTLMISRTPEVTCVVVDVSHEDPEVKFNWYVDGVEVHNAKTKPREEQYNSTYRVVSVLTVLHQDWLNGKEYKCKVSNKALPAPIEKTISKAKGQPREPQVCTLPPSRDELTKNQVSLWCLVKGFYPSDIAVEWESNGQPENNYKTTPPVLDSDGSFFLYSKLTVDKSRWQQGNVFSCSVMHEALHNRYTQKSLSLSP
light: DIVMTQSPLSLPVTPGEPASISCRSSQSLVHSNRNTYLHWYQQKPGQAPRLLIYKVSNRFSGVPDRFSGSGSGTDFTLKISRVEAEDVGVYYCGQGTQVPYTFGQGTKLEIKRTVAAPSVFIFPPSDEQLKSGTASVVCLLNNFYPREAKVQWKVDNALQSGNSQESVTEQDSKDSTYSLSSTLTLSKADYEKHKVYACEVTHQGLSSPVTKSFNRGEC
B2: CE115HA000 Y97R one-arm antibody (antibody, human IgG1, kappa, L234A L235A, N297A, name in Kabat numbering)
heavy: QVQLVESGGGVVQPGRSLRLSCAASGFTFSNAWMHWVRQAPGKGLEWVAQIKAKSNNYATYYAESVKGRFTISRDDSKNSLYLQMNSLKTEDTAVYYCRYVHRGAYYGVDAWGQGTTVTVSSASTKGPSVFPLAPSSKSTSGGTAALGCLVKDYFPEPVTVSWNSGALTSGVHTFPAVLQSSGLYSLSSVVTVPSSSLGTQTYICNVNHKPSNTKVDKKVEPKSCDKTHTCPPCPAPEAAGGPSVFLFPPKPKDTLMISRTPEVTCVVVDVSHEDPEVKFNWYVDGVEVHNAKTKPREEQYASTYRVVSVLTVLHQDWLNGKEYKCKVSNKALPAPIEKTISKAKGQPREPQVYTLPPSRCELTKNQVSLSCAVKGFYPSDIAVEWESNGQPENNYKTTPPVLDSDGSFFLVSKLTVDKSRWQQGNVFSCSVMHEALHNHYTQKSLSLSPDYKDDDDK
chain: EPKSSDKTHTCPPCPAPELLGGPSVFLFPPKPKDTLMISRTPEVTCVVVDVSHEDPEVKFNWYVDGVEVHNAKTKPREEQYNSTYRVVSVLTVLHQDWLNGKEYKCKVSNKALPAPIEKTISKAKGQPREPQVCTLPPSRDELTKNQVSLWCLVKGFYPSDIAVEWESNGQPENNYKTTPPVLDSDGSFFLYSKLTVDKSRWQQGNVFSCSVMHEALHNRYTQKSLSLSP
light: DIVMTQSPLSLPVTPGEPASISCRSSQSLVHSNRNTYLHWYQQKPGQAPRLLIYKVSNRFSGVPDRFSGSGSGTDFTLKISRVEAEDVGVYYCGQGTQVPYTFGQGTKLEIKRTVAAPSVFIFPPSDEQLKSGTASVVCLLNNFYPREAKVQWKVDNALQSGNSQESVTEQDSKDSTYSLSSTLTLSKADYEKHKVYACEVTHQGLSSPVTKSFNRGEC
B3: CE115HA000 Y97S one-arm antibody (antibody, human IgG1, kappa, L234A L235A, N297A, name in Kabat numbering)
heavy: QVQLVESGGGVVQPGRSLRLSCAASGFTFSNAWMHWVRQAPGKGLEWVAQIKAKSNNYATYYAESVKGRFTISRDDSKNSLYLQMNSLKTEDTAVYYCRYVHSGAYYGVDAWGQGTTVTVSSASTKGPSVFPLAPSSKSTSGGTAALGCLVKDYFPEPVTVSWNSGALTSGVHTFPAVLQSSGLYSLSSVVTVPSSSLGTQTYICNVNHKPSNTKVDKKVEPKSCDKTHTCPPCPAPEAAGGPSVFLFPPKPKDTLMISRTPEVTCVVVDVSHEDPEVKFNWYVDGVEVHNAKTKPREEQYASTYRVVSVLTVLHQDWLNGKEYKCKVSNKALPAPIEKTISKAKGQPREPQVYTLPPSRCELTKNQVSLSCAVKGFYPSDIAVEWESNGQPENNYKTTPPVLDSDGSFFLVSKLTVDKSRWQQGNVFSCSVMHEALHNHYTQKSLSLSPDYKDDDDK
chain: EPKSSDKTHTCPPCPAPELLGGPSVFLFPPKPKDTLMISRTPEVTCVVVDVSHEDPEVKFNWYVDGVEVHNAKTKPREEQYNSTYRVVSVLTVLHQDWLNGKEYKCKVSNKALPAPIEKTISKAKGQPREPQVCTLPPSRDELTKNQVSLWCLVKGFYPSDIAVEWESNGQPENNYKTTPPVLDSDGSFFLYSKLTVDKSRWQQGNVFSCSVMHEALHNRYTQKSLSLSP
light: DIVMTQSPLSLPVTPGEPASISCRSSQSLVHSNRNTYLHWYQQKPGQAPRLLIYKVSNRFSGVPDRFSGSGSGTDFTLKISRVEAEDVGVYYCGQGTQVPYTFGQGTKLEIKRTVAAPSVFIFPPSDEQLKSGTASVVCLLNNFYPREAKVQWKVDNALQSGNSQESVTEQDSKDSTYSLSSTLTLSKADYEKHKVYACEVTHQGLSSPVTKSFNRGEC
B4: CE115HA000 Y100A one-arm antibody (antibody, human IgG1, kappa, L234A L235A, N297A, name in Kabat numbering)
heavy: QVQLVESGGGVVQPGRSLRLSCAASGFTFSNAWMHWVRQAPGKGLEWVAQIKAKSNNYATYYAESVKGRFTISRDDSKNSLYLQMNSLKTEDTAVYYCRYVHYGAAYGVDAWGQGTTVTVSSASTKGPSVFPLAPSSKSTSGGTAALGCLVKDYFPEPVTVSWNSGALTSGVHTFPAVLQSSGLYSLSSVVTVPSSSLGTQTYICNVNHKPSNTKVDKKVEPKSCDKTHTCPPCPAPEAAGGPSVFLFPPKPKDTLMISRTPEVTCVVVDVSHEDPEVKFNWYVDGVEVHNAKTKPREEQYASTYRVVSVLTVLHQDWLNGKEYKCKVSNKALPAPIEKTISKAKGQPREPQVYTLPPSRCELTKNQVSLSCAVKGFYPSDIAVEWESNGQPENNYKTTPPVLDSDGSFFLVSKLTVDKSRWQQGNVFSCSVMHEALHNHYTQKSLSLSPDYKDDDDK
chain: EPKSSDKTHTCPPCPAPELLGGPSVFLFPPKPKDTLMISRTPEVTCVVVDVSHEDPEVKFNWYVDGVEVHNAKTKPREEQYNSTYRVVSVLTVLHQDWLNGKEYKCKVSNKALPAPIEKTISKAKGQPREPQVCTLPPSRDELTKNQVSLWCLVKGFYPSDIAVEWESNGQPENNYKTTPPVLDSDGSFFLYSKLTVDKSRWQQGNVFSCSVMHEALHNRYTQKSLSLSP
light: DIVMTQSPLSLPVTPGEPASISCRSSQSLVHSNRNTYLHWYQQKPGQAPRLLIYKVSNRFSGVPDRFSGSGSGTDFTLKISRVEAEDVGVYYCGQGTQVPYTFGQGTKLEIKRTVAAPSVFIFPPSDEQLKSGTASVVCLLNNFYPREAKVQWKVDNALQSGNSQESVTEQDSKDSTYSLSSTLTLSKADYEKHKVYACEVTHQGLSSPVTKSFNRGEC

Target: T1, CD3ε homodimer protein (human, UniProt P07766 23-126, limits assumed, sulfo-tag or biotin label in the ECL assays; amine-coupled to the chip in SPR)
T1 construct: also called human CD3ε homodimer protein; CD3 (CD3ε)
T1 sequence (P07766 23-126 limits assumed): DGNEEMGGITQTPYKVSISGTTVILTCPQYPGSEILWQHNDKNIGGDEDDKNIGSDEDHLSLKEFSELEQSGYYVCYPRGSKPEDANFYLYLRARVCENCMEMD
Assay: SPR Biacore T200; CD3ε homodimer on CM4 chip;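 note: Single-residue variant antibodies injected as analyte over CD3ε homodimer immobilized by amine coupling, run at 25 °C in HBS-EP+ buffer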
Procedure: An appropriate amount of CD3ε homodimer protein was immobilized onto Sensor chip CM4 (GE Healthcare Japan Corp.) by the amine coupling method. Then, the antibody having an appropriate concentration was injected thereto as an analyte and allowed to interact with the CD3ε homodimer protein on the sensor chip. Then, the sensor chip was regenerated by the injection of 10 mmol/L glycine-HCl (pH 1.5). The assay was conducted at 25° C., and HBS-EP+ (GE Healthcare Japan Corp.) was used as a running buffer. […] Each parameter was calculated using Biacore T200 Evaluation Software (GE Healthcare Japan Corp.).

Compared with B1, B2 is higher in “ratio of amounts bound Z=Y/X (altered form / CE115HA000)” value: 0.11 for the first, 0.27 for the second.

Compared with B3, B4 is higher in “ratio of amounts bound Z=Y/X (altered form / CE115HA000)” value: 0.18 for the first, 0.9 for the second.
